{
  "source": "paper PMC5734868",
  "about": "(ACS infectious diseases, 2017)",
  "proteins": {"B1": {"name": "PanD 114Stop (aspartate decarboxylase domain without the C-terminal tail) (domain or fragment)", "chain": "MLRTMLKSKIHRATVTCADLHYVGSVTIDADLMDAADLLEGEQVTIVDIDNGARLVTYAITGERGSGVIGINGAAAHLVHPGDLVILIAYATMDDARARTYQPRIVFVDAYNKP"}},
  "target": "the molecule itself",
  "test": "SDS-PAGE of semi-denatured protein",
  "data": [
    {"protein": "B1", "values": [
      {"measurement": "binding result", "result": "binds"}
    ]}
  ]
}
